To fix the notation:
B1: peptide HD2 (from tick evasin EVA4) / CCL4 (biotinylated, synthetic) (parent complex)
chain 1: EEDDYTAYAPLTCYFT
chain 2: APMGSDPPTACCFSYTARKLPRNFVVDYYETSSLCSQPAVVFQTKRSKQVCADPSESWVQEYVYDLELN

In PMC11969024 (2025) one finds enrichment data, which are given here for 150 variants.

In this assay the parent is B1.
Turning to chain 1 D3Y, the enrichment was -1.16 log2 (difference from the parental peptide). The result for chain 1 D3S reads -2.37 log2 (difference from the parental peptide); that for chain 1 D3R, -4.7 log2 (difference from the parental peptide); that for chain 1 D3T, -2.72 log2 (difference from the parental peptide).

For chain 1 D3H, the enrichment was -1.73 log2 (difference from the parental peptide).

Consider chain 1 D3P, for which the enrichment is -2.56 log2 (difference from the parental peptide). With chain 1 D3I, the enrichment is -3.64 log2 (difference from the parental peptide). The result for chain 1 T6E reads 2.94 log2 (difference from the parental peptide); that for chain 1 T6G, 2.91 log2 (difference from the parental peptide).

Take chain 1 T6L: the enrichment is -2.59 log2 (difference from the parental peptide). Then chain 1 T6V, with -3.51 log2 (difference from the parental peptide). The result for chain 1 T6R reads -0.342 log2 (difference from the parental peptide); that for chain 1 T6W, 0.361 log2 (difference from the parental peptide). As to chain 1 T6Q, the enrichment was 0.872 log2 (difference from the parental peptide).

As to chain 1 T6S, the enrichment is 2.87 log2 (difference from the parental peptide). The result for chain 1 T6N reads 1.16 log2 (difference from the parental peptide); that for chain 1 A7I, -0.497 log2 (difference from the parental peptide). Then chain 1 A7V, with -1.76 log2 (difference from the parental peptide); and chain 1 A7L, with -0.0909 log2 (difference from the parental peptide); and chain 1 A7K, with 1.68 log2 (difference from the parental peptide). Then chain 1 A7Q, with 2.27 log2 (difference from the parental peptide); and chain 1 A7T, with -0.191 log2 (difference from the parental peptide).

For chain 1 A7F, the enrichment was -2.35 log2 (difference from the parental peptide). Then chain 1 A7G, with 0.187 log2 (difference from the parental peptide). The result for chain 1 A7P reads 1.22 log2 (difference from the parental peptide); that for chain 1 A7M, 2.06 log2 (difference from the parental peptide); that for chain 1 A7D, 1.81 log2 (difference from the parental peptide). On to chain 1 E1Q, for which the enrichment was -0.262 log2 (difference from the parental peptide).

For chain 1 E1A, the enrichment is -0.519 log2 (difference from the parental peptide). Then chain 1 E1V, with -1.21 log2 (difference from the parental peptide); and chain 1 E1Y, with -1.6 log2 (difference from the parental peptide). As for chain 1 E1R, the enrichment is -3.09 log2 (difference from the parental peptide). Regarding chain 1 E1S, the enrichment is -0.537 log2 (difference from the parental peptide). Then chain 1 E1P, with -1.59 log2 (difference from the parental peptide). Then chain 1 E1I, with -0.889 log2 (difference from the parental peptide).

chain 1 T16F: the enrichment is -0.0684 log2 (difference from the parental peptide).

On to chain 1 T16R, for which the enrichment was -0.298 log2 (difference from the parental peptide). As for chain 1 T16H, the enrichment is 0.117 log2 (difference from the parental peptide). The result for chain 1 T16P reads 1.45 log2 (difference from the parental peptide); that for chain 1 T16W, -0.489 log2 (difference from the parental peptide). On to chain 1 T16E, for which the enrichment was 0.827 log2 (difference from the parental peptide). Then chain 1 T16M, with 0.277 log2 (difference from the parental peptide); and chain 1 T16C, with -0.0497 log2 (difference from the parental peptide); and chain 1 T16A, with 1.47 log2 (difference from the parental peptide). The result for chain 1 T16L reads 0.489 log2 (difference from the parental peptide); that for chain 1 E2K, -3.72 log2 (difference from the parental peptide); that for chain 1 E2R, -4.37 log2 (difference from the parental peptide). Then chain 1 E2D, with 1.08 log2 (difference from the parental peptide); and chain 1 E2L, with -1.83 log2 (difference from the parental peptide); and chain 1 E2S, with -2.25 log2 (difference from the parental peptide).

With chain 1 E2T, the enrichment is -2.75 log2 (difference from the parental peptide). chain 1 E2A: the enrichment was -0.79 log2 (difference from the parental peptide). chain 1 P10E: the enrichment is -4.88 log2 (difference from the parental peptide). For the variant chain 1 P10D, the enrichment is -2.89 log2 (difference from the parental peptide). Then chain 1 P10Y, with -7.13 log2 (difference from the parental peptide). Take chain 1 P10T: the enrichment is -7.43 log2 (difference from the parental peptide). The result for chain 1 P10G reads -6.62 log2 (difference from the parental peptide); that for chain 1 P10Q, -4.96 log2 (difference from the parental peptide).

Regarding chain 1 C13A, the enrichment was -7.87 log2 (difference from the parental peptide).

For the variant chain 1 C13P, the enrichment is -9.17 log2 (difference from the parental peptide). Then chain 1 C13Y, with -5.99 log2 (difference from the parental peptide); and chain 1 C13I, with -3.66 log2 (difference from the parental peptide); and chain 1 C13T, with -4.09 log2 (difference from the parental peptide).

chain 1 C13K: the enrichment is -8.69 log2 (difference from the parental peptide). Then chain 1 C13M, with -2.33 log2 (difference from the parental peptide); and chain 1 C13N, with -7.77 log2 (difference from the parental peptide). Then chain 1 C13E, with -9.5 log2 (difference from the parental peptide); and chain 1 C13G, with -9 log2 (difference from the parental peptide); and chain 1 C13L, with -6.3 log2 (difference from the parental peptide).

For chain 1 Y8E, the enrichment was -5.75 log2 (difference from the parental peptide). Take chain 1 Y8N: the enrichment is -2.94 log2 (difference from the parental peptide). Then chain 1 Y8T, with -6.05 log2 (difference from the parental peptide); and chain 1 Y8F, with 0.697 log2 (difference from the parental peptide). The result for chain 1 Y8P reads -0.864 log2 (difference from the parental peptide); that for chain 1 Y8S, -2.96 log2 (difference from the parental peptide); that for chain 1 Y8W, -0.806 log2 (difference from the parental peptide). Then chain 1 Y8L, with -7.61 log2 (difference from the parental peptide); and chain 1 Y8I, with -7.37 log2 (difference from the parental peptide).

As to chain 1 Y8A, the enrichment was -1.67 log2 (difference from the parental peptide). Then chain 1 T12N, with 1.46 log2 (difference from the parental peptide).

Regarding chain 1 T12E, the enrichment was -1.15 log2 (difference from the parental peptide). Then chain 1 T12Y, with 2.43 log2 (difference from the parental peptide). As for chain 1 T12D, the enrichment is -0.0833 log2 (difference from the parental peptide).

Consider chain 1 F15I, for which the enrichment is 0.969 log2 (difference from the parental peptide). Then chain 1 F15T, with 1.23 log2 (difference from the parental peptide). Turning to chain 1 F15N, the enrichment is -0.875 log2 (difference from the parental peptide). The result for chain 1 F15E reads -1.26 log2 (difference from the parental peptide). Regarding chain 1 F15H, the enrichment was 0.795 log2 (difference from the parental peptide). Then chain 1 F15Y, with 0.0726 log2 (difference from the parental peptide); and chain 1 F15Q, with 0.832 log2 (difference from the parental peptide); and chain 1 F15L, with 0.921 log2 (difference from the parental peptide). Regarding chain 1 F15S, the enrichment is -0.0882 log2 (difference from the parental peptide). The result for chain 1 F15R reads 0.256 log2 (difference from the parental peptide); that for chain 1 Y5S, -5.86 log2 (difference from the parental peptide).

For the variant chain 1 Y5V, the enrichment is -5.67 log2 (difference from the parental peptide). The result for chain 1 Y5T reads -4.65 log2 (difference from the parental peptide); that for chain 1 Y5R, -5.62 log2 (difference from the parental peptide).

As to chain 1 Y5F, the enrichment is 0.426 log2 (difference from the parental peptide).

As for chain 1 Y5P, the enrichment was -6.3 log2 (difference from the parental peptide). For the variant chain 1 Y5H, the enrichment is -5.89 log2 (difference from the parental peptide).

Consider chain 1 Y5C, for which the enrichment is -8.73 log2 (difference from the parental peptide). Then chain 1 Y5E, with -2.05 log2 (difference from the parental peptide); and chain 1 Y5M, with -3.3 log2 (difference from the parental peptide).

Consider chain 1 D4G, for which the enrichment is -4.2 log2 (difference from the parental peptide). Regarding chain 1 D4V, the enrichment was -4.25 log2 (difference from the parental peptide). In the case of chain 1 D4L, the enrichment was -3.89 log2 (difference from the parental peptide). The result for chain 1 D4Y reads -0.805 log2 (difference from the parental peptide). Then chain 1 D4P, with -1.94 log2 (difference from the parental peptide); and chain 1 D4K, with -5.45 log2 (difference from the parental peptide).

Consider chain 1 D4S, for which the enrichment was -3.38 log2 (difference from the parental peptide). Then chain 1 D4A, with -3.33 log2 (difference from the parental peptide). The result for chain 1 D4N reads -2.63 log2 (difference from the parental peptide). Then chain 1 Y14Q, with -2.97 log2 (difference from the parental peptide).

Turning to chain 1 Y14E, the enrichment was -5.52 log2 (difference from the parental peptide). For chain 1 Y14K, the enrichment was -5.73 log2 (difference from the parental peptide). The result for chain 1 Y14G reads -6.07 log2 (difference from the parental peptide). Take chain 1 Y14R: the enrichment was -4.11 log2 (difference from the parental peptide). The result for chain 1 Y14L reads -2.84 log2 (difference from the parental peptide).

In the case of chain 1 Y14M, the enrichment is -2.24 log2 (difference from the parental peptide). For the variant chain 1 Y14N, the enrichment is -3.47 log2 (difference from the parental peptide). Then chain 1 Y14A, with -3.96 log2 (difference from the parental peptide); and chain 1 Y14D, with -5.1 log2 (difference from the parental peptide); and chain 1 Y14S, with -3.51 log2 (difference from the parental peptide).

Regarding chain 1 Y14F, the enrichment was 0.581 log2 (difference from the parental peptide). The result for chain 1 Y14H reads -0.0476 log2 (difference from the parental peptide). Then chain 1 Y14W, with -0.462 log2 (difference from the parental peptide). The result for chain 1 Y14P reads -6.84 log2 (difference from the parental peptide); that for chain 1 A9P, -7.37 log2 (difference from the parental peptide). With chain 1 A9I, the enrichment is -7.98 log2 (difference from the parental peptide). As for chain 1 A9K, the enrichment was -3.61 log2 (difference from the parental peptide).

chain 1 A9H: the enrichment is -6.2 log2 (difference from the parental peptide).

On to chain 1 A9W, for which the enrichment was -3.72 log2 (difference from the parental peptide). The result for chain 1 A9E reads 0.657 log2 (difference from the parental peptide); that for chain 1 A9F, -6.63 log2 (difference from the parental peptide); that for chain 1 A9N, -4.06 log2 (difference from the parental peptide). The result for chain 1 A9S reads -0.615 log2 (difference from the parental peptide). chain 1 A9L: the enrichment is -6 log2 (difference from the parental peptide). Then chain 1 A9Q, with -0.79 log2 (difference from the parental peptide); and chain 1 A9Y, with -5.65 log2 (difference from the parental peptide); and chain 1 A9G, with -5.26 log2 (difference from the parental peptide). Then chain 1 A9R, with -1.96 log2 (difference from the parental peptide); and chain 1 A9T, with -2.45 log2 (difference from the parental peptide); and chain 1 L11E, with -2.34 log2 (difference from the parental peptide).

On to chain 1 L11F, for which the enrichment was -0.923 log2 (difference from the parental peptide). Turning to chain 1 L11N, the enrichment is -3.21 log2 (difference from the parental peptide).

Take chain 1 L11G: the enrichment was -4.26 log2 (difference from the parental peptide). The result for chain 1 L11S reads -0.188 log2 (difference from the parental peptide). Then chain 1 L11H, with 1.71 log2 (difference from the parental peptide). Then chain 1 L11K, with 1.88 log2 (difference from the parental peptide); and chain 1 L11P, with -7.67 log2 (difference from the parental peptide).
